Laboratory results taken from patent US20250313627A1 (FUSE BIOTHERAPEUTICS, published 2025).

Key:
[1] = biological target: T1, recombinant His tagged human ROR1 (human, UniProt Q01973 30-403, limits assumed); test: BLI (Octet), FUSE protein on the tip, His tagged ROR1 in solution
T1 construct: Analyte in the BLI assay; also called Human ROR1-His; recombinant ROR1
Procedure: As shown in FIGS. 5A-5D, the binding affinities (KD) of TCEs for ROR1 were assessed. We examined the magnitude by which several TCEs and mutants thereof bind to recombinant ROR1. Kinetic binding graphs were generated via Bio-Layer Interferometry (BLI) using an Octet system. For each TCE, the biosensor tips were coated with FUSE proteins at 15 μg/ml and probed with either recombinant His tagged ROR1 at concentrations ranging from 100 pM to 10 μM. […] The binding affinity (KD), on rate (k-on) and off rate (k-dis), are summarized for ROR1 in FIG. 5D.
We further examined the impact of mutating the cysteine residues located in CDR1 and CDR3 of 2A11 VHH and 5A1 VHH.

human CD3 on T cells = biological target: T2, human CD3 on T cells (human, UniProt P07766 23-207; P09693 23-182; P04234 22-171; P20963 22-164); test: flow cytometry on CD3+ Jurkat NFAT Lucia cells, secondary antibody to the IgG1 Fc
T2 construct: whole, on cells; also called human CD3 on Jurkat T cells; human CD3 on T cells isolated from human PBMC

[2] = biological target: T3, human ROR1 (Receptor Tyrosine Kinase-Like Orphan Receptor 1) on the cell surface (human, UniProt Q01973 30-937); test: flow cytometry on ROR1+ MDA-MB-231 cells, secondary antibody to the IgG1 Fc; table row 'Binding EC50 (nM)', the graph's axis reads 'Concentration (pM)'
T3 construct: whole, on cells; engineered into B16-F10 (high density) and LS174T (low density) cells; also called B16-F10-ROR1-H; LS174T-ROR1-L

[3] = biological target: T3, human ROR1 (Receptor Tyrosine …); test: flow cytometry, B16-F10 cells expressing human ROR1 (high density)
Procedure: (§1) As shown in the tables below, mouse B16-F10 melanoma (Tables 9A-9F) or LS174T human colorectal adenocarcinoma (Tables 9G-9H) cells genetically engineered to express human ROR1 at high and low densities, respectively, were stained for flow cytometric analysis with 100 nM of humanized variants of the ROR1 specific VHHs, 5A1 or 2A11 in either a VHH-Fc format or the Ac13 format shown in FIG. 1. Cells were analyzed on a flow cytometer after the primary test article was fluorescently tagged with a goat anti human IgG-Fc specific PE secondary antibody. The positive control used was PE conjugated anti-human ROR1 clone 2A2. Negative controls included a PE labeled mouse IgG Ab, the secondary antibody only, the combination of a Hen Egg Lysozyme (HEL) specific antibody plus goat anti human IgG-Fc specific PE and Fluorescence Minus One (FMO). Other controls included the non-humanized version of 5A1-Fc (FUSE179), 2A11-Fc (FUSE112) and 5A1-Ac13 (FUSE488). Humanized variants were generated using computational design (FUSE489, FUSE497-498, FUSE563, FUSE569-570, and BI-HU9-VHH11-33), a yeast display library in which mutations were inserted into the Vernier zone residues of human framework indicated in GenBank accession number M99660 (FUSE524-525, FUSE589, FUSE597-598, FUSE537, FUSE661-662, BI-HU9-HK and BI-HU9-HK-1), and a second yeast display library in which mutations were inserted into the Vernier zone residues of human framework indicated in GenBank accession number AWH66715 and amino acid position 103 within CDR3 (FUSE559, FUSE590-596, BI-HU9-VH9-1, FUSE654-655 and FUSE661-662. Affinity matured variants of FUSE559 were also generated using computational design (F22158101-21; Table 9H).

[4] = biological target: T3, human ROR1 (Receptor Tyrosine …); test: flow cytometry, LS174T cells expressing human ROR1 (low density)
Procedure: as §1

[5] = biological target: T3, human ROR1 (Receptor Tyrosine …); test: flow cytometry, B16-F10 cells expressing human ROR1 (high density); remark: listed apart in the source
Procedure: as §1

[6] = biological target: T1, recombinant His tagged human ROR1; test: SPR (Biacore 8K), recombinant human ROR1 amine-coupled on a CM5 chip (4400 RU), analyte 200nM, 1:1 binding fit; column '1:1 binding ka (1/Ms)' [table below it]
Procedure: (§2) Protein test article binding to recombinant human ROR1 (Acro Biosystems, RO1-H522y) was detected on a BIAcore 8K (Cytiva) biosensor system using an SPR assay. Briefly, a carboxymethylated CM5 sensor chip was activated with 1:1 mixture of 0.4 M N-ethyl-N-(3-dimethylaminopropyl) carbodiimide and 0.1 M′ N-hydroxysuccinimide. Recombinant human ROR1 in 10 mM NaOAc (pH5) was then immobilized on the sensor chip by amine-coupling according to the manufacturer's instructions to yield the stable RU of 4400. Unreacted sites were blocked with 1M ethanolamine/HCl (pH 8). Control flow cells (blank) were activated and blocked in the absence of ROR1. Flow cells were routinely equilibrated with running buffer (PBS, 0.005% surfactant P20). Test article proteins used for assessment of binding to recombinant human ROR1 binding were diluted in HBS-EP running buffer and injected into the sensor chip at different concentrations. […] Data from duplicate assays were modeled for binding equilibrium and dot plots for 200 nM of protein test article was calculated. Association constant (ka), dissociation constant (kd) and binding affinity (KD=kd/ka) were generated from integrated software in the BIAcore 8K system.
(§3) Shown are sensorgrams of surface plasmon resonance (SPR) data generated via Biacore analysis. A summary table of binding affinity (KD), on rate (k-a) and off rate (kd) is shown below FIG. 16B.

[7] = biological target: T3, human ROR1 (Receptor Tyrosine …); test: flow cytometry, B16-F10 cells expressing human ROR1 (high density); remark: listed apart in the source
Procedure: as §1

[8] = biological target: T1, recombinant His tagged human ROR1; test: SPR (Biacore 8K), recombinant human ROR1 amine-coupled on a CM5 chip (4400 RU), analyte 200nM, 1:1 binding fit; column 'kd (1/s)' [table below it]
Procedure: as §2, §3

[9] = biological target: T3, human ROR1 (Receptor Tyrosine …); test: flow cytometry on B16-F10 cells engineered to express human ROR1, secondary antibody to the IgG1 Fc
Procedure: As shown in FIG. 15 the apparent binding affinity (EC50-binding) of the ROR1 specific VHH-Fc incorporating either the non humanized VHH clone 5A1 (FUSE179; black circle), the humanized clone 5A1-FA9-HK1 (FUSE559; black square) or the humanized clone 5A1-HK1 (FUSE524; black triangle) was calculated. Shown is a non-linear x-y plot of binding to B16-F10 cell engineered to express human ROR1 relative to the concentration of test article used for staining. A Hen Egg Lysozyme (HEL)-specific antibody was used as the negative isotype control. Binding was measured via flow cytometry using a fluorescently labeled secondary antibody specific for the Fc domain of IgG1. A summary table of EC50s and maximum MFI is shown beneath under the graph.

[10] = biological target: T1, recombinant His tagged human ROR1; test: SPR (Biacore 8K), recombinant human ROR1 amine-coupled on a CM5 chip (4400 RU), analyte 200nM, 1:1 binding fit [table below it]
Procedure: as §2, §3

[11] = biological target: T3, human ROR1 (Receptor Tyrosine …); test: flow cytometry, LS174T cells expressing human ROR1 (low density); remark: listed apart in the source
Procedure: as §1

T3 sequence (Q01973 30-937): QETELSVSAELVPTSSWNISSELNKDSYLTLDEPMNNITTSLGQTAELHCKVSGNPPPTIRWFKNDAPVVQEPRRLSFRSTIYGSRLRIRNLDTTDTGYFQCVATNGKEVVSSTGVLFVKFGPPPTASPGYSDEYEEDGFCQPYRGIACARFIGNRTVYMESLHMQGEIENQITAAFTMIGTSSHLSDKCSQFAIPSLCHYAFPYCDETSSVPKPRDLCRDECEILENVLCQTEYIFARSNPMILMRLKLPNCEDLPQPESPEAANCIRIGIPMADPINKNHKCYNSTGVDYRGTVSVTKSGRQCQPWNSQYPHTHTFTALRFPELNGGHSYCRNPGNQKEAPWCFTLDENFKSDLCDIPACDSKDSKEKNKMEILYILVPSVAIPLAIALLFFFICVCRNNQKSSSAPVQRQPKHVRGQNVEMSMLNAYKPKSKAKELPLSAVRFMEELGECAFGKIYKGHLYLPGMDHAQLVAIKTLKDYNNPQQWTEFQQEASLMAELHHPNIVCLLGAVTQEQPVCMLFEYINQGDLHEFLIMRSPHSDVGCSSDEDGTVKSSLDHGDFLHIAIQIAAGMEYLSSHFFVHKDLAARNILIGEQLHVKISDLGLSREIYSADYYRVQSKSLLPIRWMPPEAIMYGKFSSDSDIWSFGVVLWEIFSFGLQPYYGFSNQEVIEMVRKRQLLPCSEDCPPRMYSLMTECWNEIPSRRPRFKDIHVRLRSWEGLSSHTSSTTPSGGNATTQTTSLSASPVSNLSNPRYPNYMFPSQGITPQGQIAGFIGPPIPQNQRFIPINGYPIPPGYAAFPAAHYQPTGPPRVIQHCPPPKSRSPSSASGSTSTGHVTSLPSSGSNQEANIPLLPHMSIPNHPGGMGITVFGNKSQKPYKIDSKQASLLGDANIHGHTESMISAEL
T1 sequence (Q01973 30-403 limits assumed): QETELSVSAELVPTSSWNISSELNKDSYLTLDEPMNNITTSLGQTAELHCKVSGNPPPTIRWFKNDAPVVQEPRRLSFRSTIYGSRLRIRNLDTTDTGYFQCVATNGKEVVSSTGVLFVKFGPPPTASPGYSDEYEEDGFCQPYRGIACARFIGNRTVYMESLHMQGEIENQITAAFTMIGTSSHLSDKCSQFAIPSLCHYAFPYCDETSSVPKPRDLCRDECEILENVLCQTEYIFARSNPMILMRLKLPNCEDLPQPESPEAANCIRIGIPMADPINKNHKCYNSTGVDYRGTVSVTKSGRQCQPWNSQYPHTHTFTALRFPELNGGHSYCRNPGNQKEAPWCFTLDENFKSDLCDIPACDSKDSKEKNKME
T2 sequence (P07766 23-207, chain 1 of 4): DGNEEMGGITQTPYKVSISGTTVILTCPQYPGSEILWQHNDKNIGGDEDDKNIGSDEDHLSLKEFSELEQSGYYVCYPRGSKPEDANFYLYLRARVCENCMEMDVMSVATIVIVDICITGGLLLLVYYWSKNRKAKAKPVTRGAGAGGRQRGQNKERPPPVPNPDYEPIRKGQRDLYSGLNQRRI
T2 sequence (P09693 23-182, chain 2 of 4): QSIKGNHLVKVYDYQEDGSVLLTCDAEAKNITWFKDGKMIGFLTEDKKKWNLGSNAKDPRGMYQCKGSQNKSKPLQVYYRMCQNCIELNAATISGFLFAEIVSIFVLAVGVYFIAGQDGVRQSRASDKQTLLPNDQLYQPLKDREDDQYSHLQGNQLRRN
T2 sequence (P04234 22-171, chain 3 of 4): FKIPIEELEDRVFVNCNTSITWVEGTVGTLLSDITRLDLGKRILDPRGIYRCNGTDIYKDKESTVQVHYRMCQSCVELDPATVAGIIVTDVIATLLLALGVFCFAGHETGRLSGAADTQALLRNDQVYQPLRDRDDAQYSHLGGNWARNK
T2 sequence (P20963 22-164, chain 4 of 4): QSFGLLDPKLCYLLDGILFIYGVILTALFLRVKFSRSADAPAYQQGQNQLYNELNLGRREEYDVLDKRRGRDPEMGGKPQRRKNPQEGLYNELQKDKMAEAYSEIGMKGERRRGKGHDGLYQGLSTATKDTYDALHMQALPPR

B1: FUSE-453 (2A11 VHH mutant-Fc fusion protein) (Fc fusion)
chain: QVQLQESGGGSVPAGGSLRLSCAASGSTYSANVMGWFRQAPGKEREEVASMSIRSGRTYYSDSVKGRFTISQDGSKNTLYLQLNSLKAEDTALYYCAAAYGGSRVVYNYRGQGTQVTVSS
notes: also called mutant 2A11; 2A11-CV; not shown: human Fc
fold lower affinity than FUSE-112 [1]: > 100 fold

B2: FUSE-488 (5A1-Ac13) (bispecific antibody, human IgG1, lambda, L234A L235A)
heavy: EVQLVESGGGLVQPGGSLRLSCAASGFTFSTYAMNWVRQAPGKGLEWVARIRSKYNNYATYYADSVKDRFTISRDDSKNTLYLQMNSLRAEDTAVYYCARHGNFGNSYVSWFAYWGQGTMVTVSSASTKGPSVFPLAPSSKSTSGGTAALGCLVKDYFPEPVTVSWNSGALTSGVHTFPAVLQSSGLYSLSSVVTVPSSSLGTQTYICNVNHKPSNTKVDKKVEPKSCDKTHTCPPCPAPEAAGGPSVFLFPPKPKDTLMISRTPEVTCVVVDVSHEDPEVKFNWYVDGVEVHNAKTKPREEQYNSTYRVVSVLTVLHQDWLNGKEYKCKVSNKALPAPIEKTISKAKGQPREPQVYTLPPSREEMTKNQVSLSCAVKGFYPSDIAVEWESNGQPENNYKTTPPVLDSDGSFFLVSKLTVDKSRWQQGNVFSCSVMHEALHNRFTQKSLSLSPGK
chain: QVQLQESGGGSVQAGGSLKLSCTASGYTNRLKCMGWFRQAPGKEREEIATISTGTGNTYYADSVKGRFTFSQDKVKNTVYLQMNTLKPDDTGMYYCAADVRPDGTTCHYNSGGQGTQVTVSSEPKSSDKTHTCPPCPAPEAAGGPSVFLFPPKPKDTLMISRTPEVTCVVVDVSHEDPEVKFNWYVDGVEVHNAKTKPREEQYNSTYRVVSVLTVLHQDWLNGKEYKCKVSNKALPAPIEKTISKAKGQPREPQVYTLPPSREEMTKNQVSLWCLVKGFYPSDIAVEWESNGQPENNYKTTPPVLDSDGSFFLYSKLTVDKSRWQQGNVFSCSVMHEALHNHYTQKSLSLSPGK
light: QAVVTQEPSLTVSPGGTVTLTCRSSTGAVTTSNYANWVQQKPGQAPRGLIGGTNKRAPGTPARFSGSLLGGKAALTLSGVQPEDEAEYYCALWYSNLWVFGGGTKLTVLGQPKAAPSVTLFPPSSEELQANKATLVCLISDFYPGAVTVAWKADSSPVKAGVETTTPSKQSNNKYAASSYLSLTPEQWKSHRSYSCQVTHEGSTVEKTVAPTECSGGGGSGGGGSGGGGSGGGGSQVQLQESGGGSVQAGGSLKLSCTASGYTNRLKCMGWFRQAPGKEREEIATISTGTGNTYYADSVKGRFTFSQDKVKNTVYLQMNTLKPDDTGMYYCAADVRPDGTTCHYNSGGQGTQVTVSS
notes: also called humanized CD3 clone 1F3.3 x ROR1 VHH 5A1; non humanized 5A1 x 1F3-3 bsAb in format Ac13
EC50 (human CD3 on T cells): 10.6 nM | EC50 [2]: 19.2 nM | MFI [3]: 3910

B3: FUSE-559 (h5A1-FA9-HK1 Fc) (Fc fusion)
chain: EVQLLESGGGLVQPGGSLRLSCTASGYTNRLKCMGWFRQAPGKEREEIASISTGTGNTYYADSVKGRFTISRDKSRNTLYLQMNTLRAEDTAVYYCAADVRPHGTTCHYNSRGQGTQVTVSS
notes: VHH-Fc format; also called humanized clone 5A1-FA9-HK1; not shown: Fc of the VHH-Fc format
MFI [4]: 3120 | MFI [5]: 6080 | kon [6]: 301000 M⁻¹ s⁻¹ | MFI [7]: 199000 | koff [8]: 0.00077 s⁻¹ | EC50 [9]: 2.31 nM | Max MFI [9]: 7600 MFI | Kd [10]: 2.56 nM | MFI [11]: 24400

B4: FUSE-454 (5A1 VHH mutant-Fc fusion protein) (Fc fusion)
chain: QVQLQESGGGSVQAGGSLKLSCTASGYTNRLKVMGWFRQAPGKEREEIATISTGTGNTYYADSVKGRFTFSQDKVKNTVYLQMNTLKPDDTGMYYCAADVRPDGTTVHYNSGGQGTQVTVSS
notes: also called mutant 5A1; 5A1-CV; not shown: human Fc
fold lower affinity than the parent (printed FUSE-454, meant FUSE-179) [1]: > 100 fold
